From publication PMC4497647

Key:
[1] = target: HIV-1 envelope (Env) of strain ZM214 (subtype C) (HIV-1 subtype C)
[2] = target: HIV-1 envelope (Env) of strain THRO (subtype B) (HIV-1 subtype B)
[3] = target: HIV-1 envelope (Env) of strain DH123 (subtype B) (HIV-1 subtype B)
[4] = target: HIV-1 envelope (Env) of strain REJO (subtype B) (HIV-1 subtype B)
[5] = target: HIV-1 envelope (Env) of strain PVO.4 (subtype B) (HIV-1 subtype B)
[6] = target: HIV-1 envelope (Env) of strain ZM109 (subtype C) (HIV-1 subtype C)
[7] = target: HIV-1 envelope (Env) of strain SF162 (subtype B) (HIV-1 subtype B) (UniProt P19550)
[8] = target: HIV-1 envelope (Env) of strain JR-CSF (subtype B) (HIV-1 subtype B) (UniProt P20871)
[9] = target: HIV-1 envelope (Env) of strain ZM53 (subtype C) (HIV-1 subtype C)
[10] = target: HIV-1 envelope (Env) of strain BG505 (subtype A) (HIV-1 subtype A) (UniProt Q2N0S6)
[11] = target: HIV-1 envelope (Env) of strain JR-FL (subtype B) (HIV-1 subtype B) (UniProt Q75760)

fusion inhibitor T-20 (peptide)
5.3 fold: median fold reduction for T-20 in cell-cell transmission (293-T donor to A3.01-CCR5) against free virus infection [1]
< 10 fold: reduction in inhibitory activity during cell-cell transmission (293-T donor to A3.01-CCR5) against free virus infection of A3.01-CCR5 (fold change IC50) [3] | reduction in inhibitory activity during cell-cell transmission (293-T donor to A3.01-CCR5) against free virus infection of A3.01-CCR5 (fold change IC50) [4] | reduction in inhibitory activity during cell-cell transmission (293-T donor to A3.01-CCR5) against free virus infection of A3.01-CCR5 (fold change IC50) [5] | reduction in inhibitory activity during cell-cell transmission (293-T donor to A3.01-CCR5) against free virus infection of A3.01-CCR5 (fold change IC50) [6] | reduction in inhibitory activity during cell-cell transmission (293-T donor to A3.01-CCR5) against free virus infection of A3.01-CCR5 (fold change IC50) [7] | reduction in inhibitory activity during cell-cell transmission (293-T donor to A3.01-CCR5) against free virus infection of A3.01-CCR5 (fold change IC50) [8] | reduction in inhibitory activity during cell-cell transmission (293-T donor to A3.01-CCR5) against free virus infection of A3.01-CCR5 (fold change IC50) [9] | reduction in inhibitory activity during cell-cell transmission (293-T donor to A3.01-CCR5) against free virus infection of A3.01-CCR5 (fold change IC50) [10] | reduction in inhibitory activity during cell-cell transmission (293-T donor to A3.01-CCR5) against free virus infection of A3.01-CCR5 (fold change IC50) [11]
1.6 fold: median fold reduction for T-20 in cell-cell transmission (293-T donor to A3.01-CCR5) against free virus infection [2]
